Here are results for two molecules from PMC5349785 (Molecular Biology of the Cell, 2017).

Assay [1] concerns the target cargo selection complex (CSC; Vps35, Vps26, Vps29) (S. cerevisiae, UniProt P34110;P40335;P38759). The assay can be described thus: pull-down.
Assay [2] addresses CSC with GFP-tagged Vps29 (CSC-GFP) (S. cerevisiae, UniProt P34110;P40335;P38759). Briefly: pull-down.
Assay [3] concerns the target T1, Vps5 with C-terminal TAP tag (S. cerevisiae, UniProt Q92331 1-675).
T1 sequence: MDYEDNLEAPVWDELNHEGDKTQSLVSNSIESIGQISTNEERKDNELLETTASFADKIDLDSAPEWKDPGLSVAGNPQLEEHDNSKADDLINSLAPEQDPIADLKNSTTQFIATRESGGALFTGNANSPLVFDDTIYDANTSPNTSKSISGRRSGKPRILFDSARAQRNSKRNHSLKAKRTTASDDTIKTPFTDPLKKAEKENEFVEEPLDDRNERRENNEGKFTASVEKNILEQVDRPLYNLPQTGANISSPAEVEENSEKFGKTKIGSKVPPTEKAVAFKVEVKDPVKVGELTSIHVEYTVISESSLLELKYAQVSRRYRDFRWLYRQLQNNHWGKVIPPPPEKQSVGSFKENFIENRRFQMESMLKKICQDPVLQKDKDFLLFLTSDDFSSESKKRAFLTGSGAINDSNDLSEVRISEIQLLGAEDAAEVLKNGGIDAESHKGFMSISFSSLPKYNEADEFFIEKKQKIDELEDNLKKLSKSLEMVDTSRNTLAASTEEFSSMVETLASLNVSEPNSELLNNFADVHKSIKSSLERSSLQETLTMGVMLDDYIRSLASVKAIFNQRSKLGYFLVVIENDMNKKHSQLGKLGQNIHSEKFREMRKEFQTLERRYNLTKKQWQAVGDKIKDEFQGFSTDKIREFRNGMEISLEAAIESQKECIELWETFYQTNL
The assay can be described thus: tandem affinity purification.

B1: GST-tagged Ypt7 (natural protein)
chain: MSSRKKNILKVIILGDSGVGKTSLMHRYVNDKYSQQYKATIGADFLTKEVTVDGDKVATMQVWDTAGQERFQSLGVAFYRGADCCVLVYDVTNASSFENIKSWRDEFLVHANVNSPETFPFVILGNKIDAEESKKIVSEKSAQELAKSLGDIPLFLTSAKNAINVDTAFEEIARSALQQNQADTEAFEDDYNDAINIRLDGENNSCSC
For B1, the binding result in assay [1] and in assay [2] was “binds” throughout.

B2: Vps17 (natural protein)
chain: MTSAVPYDPYDDLDNNPFAEPQEEDSEPAATTTDGSSSMSEERVGTEQTAASVQDNGTANNIQNGLGEEGNATRSKTSNEHNENQQPSQPSERVILPERSDEKKKYTLLAKVTGLERFGSATGKKENPTIIFDCSTNLPTFRKQQYKNVKKSYEEFHQLFKYLNVAIQESFVPTLPSAYTTFGINSEEDRMKVTRNFQLWFNRLSQDPLIIRNEEVAFFIESDFNTYTPINKSKSLASGLKRKTLKQLAPPYDEITELAEFRPLVKSIYVVSQSLQEKLLRVSRNRKMMVQEENAFGQDFVNLDEHNKLYRRYGKILTAVGDIDSIIATMDMATLYDGLEWIVRDAYAVKEALTNRHFIMRNLVQAQQNSKAKQEQARRFRSRRDINPMKIDEALRQLKAAAKNEQVLTLKLQRITSNMIIERKQWISWYEEWIRSSIKEFTLRKIEYERKKLTLLERVRSDIRKADENGGLSRLGRHAVSNNNSDTSQTLKGDSWTGESNRKSQIPINKIAHTEFDDELFTEDDGYNSQDSDTTSLNARHAASLLGMSTK
Regarding B2, the binding result in assay [3] is recorded as “binds”.
